The source of these data is patent US5393869A, “Parathyroid hormone derivatives” (Takeda Chemical Industries, Ltd., priority 1990, dated 1995).

For one assay, the target named is PTH receptor on MC3T3-EI cells (mouse cranial bone-derived osteoblast-like cell strain) (mouse) (UniProt P41593).
Test: not given
Settings: not given
In the case of “(D-Ser^12)hPTH(1-34)NH2 (from UniProt P01270) (peptide)”, the cAMP production in MC3T3-EI cells, relative activity to hPTH(1-34) (relative activity to hPTH(1-34)) is 0.8. As for “(Aib^1)hPTH(1-34) (from UniProt P01270) (peptide)”, the cAMP production in MC3T3-EI cells, relative activity to hPTH(1-34) (relative activity to hPTH(1-34)) is 1.7. Same read-out and setting: to “(Arg^19,21)hPTH(1-34)NH2 (from UniProt P01270) (peptide)” belongs 0.9; to “(Leu^8)hPTH(1-34)NH2 (from UniProt P01270) (peptide)”, 0.5. Same read-out and setting: to “(Phe^11)hPTH(1-34) (from UniProt P01270) (peptide)” belongs 1.1. The same measure, in the same setting: under “(His^26)hPTH(1-34)NH2 (from UniProt P01270) (peptide)” stands 0.9; under “(Arg^19,21,2-(1,3-dithiolan-2-yl)-Trp^23)hPTH(1-34)NH2 (from UniProt P01270) (peptide)”, 1.7; under “(Gln^27)hPTH(1-34) (from UniProt P01270) (peptide)”, 2.5. Take “(Leu^27)hPTH(1-34) (from UniProt P01270) (peptide)”: the cAMP production in MC3T3-EI cells, relative activity to hPTH(1-34) (relative activity to hPTH(1-34)) turned out to be 1.2. On the same count and under the same terms, to “(Leu^18)hPTH(1-34) (from UniProt P01270) (peptide)” belongs 0.4; to “(Phe^11)hPTH(1-34)NH2 (from UniProt P01270) (peptide)”, 1.3. The same measure, in the same setting: under “(D-Leu^12)hPTH(1-34)NH2 (from UniProt P01270) (peptide)” stands 0.5; under “(Lys^11)hPTH(1-34)NH2 (from UniProt P01270) (peptide)”, 1.1; under “(3-(2-naphthyl)-D-Ala^12)hPTH(1-34)NH2 (from UniProt P01270) (peptide)”, 0.9. Same read-out and setting: under “(Ser^11)hPTH(1-34)NH2 (from UniProt P01270) (peptide)” stands 0.8; under “(His^25)hPTH(1-34) (from UniProt P01270) (peptide)”, 1. As to “(Leu^8, Phe^11,Leu^18)hPTH(1-34)NH2 (from UniProt P01270) (peptide)”, the cAMP production in MC3T3-EI cells, relative activity to hPTH(1-34) (relative activity to hPTH(1-34)) came out at 0.9. For “(3-(2-naphthyl)-Ala^11)hPTH(1-34)NH2 (from UniProt P01270) (peptide)”, the cAMP production in MC3T3-EI cells, relative activity to hPTH(1-34) (relative activity to hPTH(1-34)) is 1.7.

The target in a further assay is T1, PTH receptor (Mus musculus, UniProt P41593).
T1 construct: a mouse cranial bone-derived osteoblast-like cell strain, MC3T3-EI cells, cultivated on a 96-well multiplate; endogenous in cells; host or cells: MC3T3-E1 mouse osteoblast-like cells
T1 sequence (P41593 27-591): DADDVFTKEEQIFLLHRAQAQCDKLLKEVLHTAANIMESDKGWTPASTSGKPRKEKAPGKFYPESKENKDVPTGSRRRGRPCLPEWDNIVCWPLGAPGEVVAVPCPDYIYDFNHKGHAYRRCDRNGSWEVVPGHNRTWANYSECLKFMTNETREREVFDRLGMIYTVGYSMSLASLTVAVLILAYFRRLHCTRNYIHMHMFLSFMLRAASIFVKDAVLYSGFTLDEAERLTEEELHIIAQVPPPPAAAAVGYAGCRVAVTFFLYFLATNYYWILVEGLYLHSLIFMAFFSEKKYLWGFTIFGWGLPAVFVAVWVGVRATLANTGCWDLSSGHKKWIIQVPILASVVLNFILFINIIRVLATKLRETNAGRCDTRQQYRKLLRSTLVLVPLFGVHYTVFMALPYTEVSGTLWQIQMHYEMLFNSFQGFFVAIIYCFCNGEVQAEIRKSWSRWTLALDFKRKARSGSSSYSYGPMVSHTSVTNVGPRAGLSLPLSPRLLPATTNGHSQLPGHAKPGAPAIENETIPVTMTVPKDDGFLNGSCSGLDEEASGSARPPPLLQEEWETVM
The assay can be described thus: cAMP production by PTH (1-34) analogues in MC3T3-EI osteoblast-like cells. The class given is cell-based. Conditions: cAMP production, 0.01-100 nM analogue, room temperature 30 minutes, hPTH(1-34) = 1.00. The method, then:
The biological activity of the peptide analogues was evaluated by a modified version of the method reported by Shigeno et al. in The Journal of Biological Chemistry 263, 18369-18377 (1988). A culture solution (Hank's solution, containing 20 mM N-2-hydroxyethylpiperazine-N'-2-ethanesulfonic acid (HEPES), 0.1% bovine serum albumin and 0.5 mM isobutylmethyl-xanthine) containing 0.01, 0.1, 1, 10 or 100 nM analogue was added in an amount of 100 μto a mouse cranial bone-derived osteoblast-like cell strain, MC3T3-EI cells, cultivated on a 96-well multiplate (Nunclon, Nunc), followed by reaction at room temperature for 30 minutes. After addition of 100 μof 0.2N hydrochloric acid, the mixture was immersed in boiling water for 2.5 minutes, and cyclic adenosine monophosphate (cAMP) produced by a PTH receptor was extracted from the cells. The total cAMP in the culture solution and the cells was assayed using a commercial radioimmunoassay kit (cyclic AMP [^125 I] kit "Du Pont-Daiichi", Daiichi Kagaku Yakuhin).
In the case of `CC[C@H](C)[C@H](NC(=O)[C@H](CCC(=O)O)NC(=O)[C@H](CO)NC(=O)[C@@H](NC(=O)[C@@H](N)CO)C(C)C)C(=O)N[C@@H](CCC(N)=O)C(=O)N[C@@H](CC(C)C)C(=O)N[C@@H](CCSC)C(=O)N[C@@H](Cc1c[nH]cn1)C(=O)N[C@@H](CC(N)=O)C(=O)N[C@@H](Cc1ccccc1)C(=O)NCC(=O)N[C@@H](CCCCN)C(=O)N[C@@H](Cc1c[nH]cn1)C(=O)N[C@@H](CC(C)C)C(=O)N[C@@H](CC(N)=O)C(=O)N[C@@H](CO)C(=O)N[C@@H](CCSC)C(=O)N[C@@H](CCC(=O)O)C(=O)N[C@@H](CCCNC(=N)N)C(=O)N[C@H](C(=O)N[C@@H](CCC(=O)O)C(=O)N[C@@H](Cc1c[nH]c2ccccc12)C(=O)N[C@@H](CC(C)C)C(=O)N[C@@H](CCCNC(=N)N)C(=O)N[C@@H](CCCCN)C(=O)N[C@@H](CCCCN)C(=O)N[C@@H](CC(C)C)C(=O)N[C@@H](CCC(N)=O)C(=O)N[C@@H](CC(=O)O)C(=O)N[C@H](C(=O)N[C@@H](Cc1c[nH]cn1)C(=O)N[C@@H](CC(N)=O)C(=O)N[C@@H](Cc1ccccc1)C(N)=O)C(C)C)C(C)C` [[Phe^11] hPTH (1-34)NH2, (Phe^11)hPTH(1-34)NH2], the “Biological Activity (Represented by Relative Activity to hPTH(1-34))” value is 1.3. Same read-out and setting: to `CC[C@H](C)[C@H](NC(=O)[C@H](CCC(=O)O)NC(=O)[C@H](CO)NC(=O)[C@@H](NC(=O)[C@@H](N)CO)C(C)C)C(=O)N[C@@H](CCC(N)=O)C(=O)N[C@@H](CC(C)C)C(=O)N[C@@H](CCSC)C(=O)N[C@@H](Cc1c[nH]cn1)C(=O)N[C@@H](CC(N)=O)C(=O)N[C@@H](CO)C(=O)NCC(=O)N[C@@H](CCCCN)C(=O)N[C@@H](Cc1c[nH]cn1)C(=O)N[C@@H](CC(C)C)C(=O)N[C@@H](CC(N)=O)C(=O)N[C@@H](CO)C(=O)N[C@@H](CCSC)C(=O)N[C@@H](CCC(=O)O)C(=O)N[C@@H](CCCNC(=N)N)C(=O)N[C@H](C(=O)N[C@@H](CCC(=O)O)C(=O)N[C@@H](Cc1c[nH]c2ccccc12)C(=O)N[C@@H](CC(C)C)C(=O)N[C@@H](CCCNC(=N)N)C(=O)N[C@@H](CCCCN)C(=O)N[C@@H](CCCCN)C(=O)N[C@@H](CC(C)C)C(=O)N[C@@H](CCC(N)=O)C(=O)N[C@@H](CC(=O)O)C(=O)N[C@H](C(=O)N[C@@H](Cc1c[nH]cn1)C(=O)N[C@@H](CC(N)=O)C(=O)N[C@@H](Cc1ccccc1)C(N)=O)C(C)C)C(C)C` [[Ser^11] hPTH (1-34)NH2, (Ser^11)hPTH(1-34)NH2] belongs 0.8; to `CC[C@H](C)[C@H](NC(=O)[C@H](CCC(=O)O)NC(=O)[C@H](CO)NC(=O)[C@@H](NC(=O)[C@@H](N)CO)C(C)C)C(=O)N[C@@H](CCC(N)=O)C(=O)N[C@@H](CC(C)C)C(=O)N[C@@H](CCSC)C(=O)N[C@@H](Cc1c[nH]cn1)C(=O)N[C@@H](CC(N)=O)C(=O)N[C@@H](CCCCN)C(=O)NCC(=O)N[C@@H](CCCCN)C(=O)N[C@@H](Cc1c[nH]cn1)C(=O)N[C@@H](CC(C)C)C(=O)N[C@@H](CC(N)=O)C(=O)N[C@@H](CO)C(=O)N[C@@H](CCSC)C(=O)N[C@@H](CCC(=O)O)C(=O)N[C@@H](CCCNC(=N)N)C(=O)N[C@H](C(=O)N[C@@H](CCC(=O)O)C(=O)N[C@@H](Cc1c[nH]c2ccccc12)C(=O)N[C@@H](CC(C)C)C(=O)N[C@@H](CCCNC(=N)N)C(=O)N[C@@H](CCCCN)C(=O)N[C@@H](CCCCN)C(=O)N[C@@H](CC(C)C)C(=O)N[C@@H](CCC(N)=O)C(=O)N[C@@H](CC(=O)O)C(=O)N[C@H](C(=O)N[C@@H](Cc1c[nH]cn1)C(=O)N[C@@H](CC(N)=O)C(=O)N[C@@H](Cc1ccccc1)C(N)=O)C(C)C)C(C)C` [[Lys^11] hPTH (1-34)NH2, (Lys^11)hPTH(1-34)NH2], 1.1; to `CC[C@H](C)[C@H](NC(=O)[C@H](CCC(=O)O)NC(=O)[C@H](CO)NC(=O)[C@@H](NC(=O)[C@@H](N)CO)C(C)C)C(=O)N[C@@H](CCC(N)=O)C(=O)N[C@@H](CC(C)C)C(=O)N[C@@H](CCSC)C(=O)N[C@@H](Cc1c[nH]cn1)C(=O)N[C@@H](CC(N)=O)C(=O)N[C@@H](Cc1ccc2ccccc2c1)C(=O)NCC(=O)N[C@@H](CCCCN)C(=O)N[C@@H](Cc1c[nH]cn1)C(=O)N[C@@H](CC(C)C)C(=O)N[C@@H](CC(N)=O)C(=O)N[C@@H](CO)C(=O)N[C@@H](CCSC)C(=O)N[C@@H](CCC(=O)O)C(=O)N[C@@H](CCCNC(=N)N)C(=O)N[C@H](C(=O)N[C@@H](CCC(=O)O)C(=O)N[C@@H](Cc1c[nH]c2ccccc12)C(=O)N[C@@H](CC(C)C)C(=O)N[C@@H](CCCNC(=N)N)C(=O)N[C@@H](CCCCN)C(=O)N[C@@H](CCCCN)C(=O)N[C@@H](CC(C)C)C(=O)N[C@@H](CCC(N)=O)C(=O)N[C@@H](CC(=O)O)C(=O)N[C@H](C(=O)N[C@@H](Cc1c[nH]cn1)C(=O)N[C@@H](CC(N)=O)C(=O)N[C@@H](Cc1ccccc1)C(N)=O)C(C)C)C(C)C` [[3-(2-naphthyl)-Ala^11] hPTH (1-34)NH2], 1.7.
